According to patent US20200299380A1 (published 2020):

T1: human ULBP-1-Fc (R&D systems) (human, UniProt Q9BZM6 26-216, limits assumed)
T1 construct: Bought; not shown: Fc of the bought fusion protein
T1 sequence (looked up): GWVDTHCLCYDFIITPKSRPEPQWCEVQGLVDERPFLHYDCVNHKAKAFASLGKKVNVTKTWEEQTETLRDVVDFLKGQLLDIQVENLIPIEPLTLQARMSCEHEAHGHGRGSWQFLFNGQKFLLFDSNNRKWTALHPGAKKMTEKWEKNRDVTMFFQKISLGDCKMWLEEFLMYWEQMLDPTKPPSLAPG

T2: human ULBP-2-Fc (R&D systems) (human, UniProt Q9BZM5 26-217, limits assumed)
T2 construct: Bought; not shown: Fc of the bought fusion protein
T2 sequence (looked up): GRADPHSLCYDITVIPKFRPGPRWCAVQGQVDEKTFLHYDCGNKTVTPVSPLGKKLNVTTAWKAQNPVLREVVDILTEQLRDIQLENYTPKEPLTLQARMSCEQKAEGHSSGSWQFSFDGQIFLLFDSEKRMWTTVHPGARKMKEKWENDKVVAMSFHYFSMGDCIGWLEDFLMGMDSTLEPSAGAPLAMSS

T3: human ULBP-3-Fc (R&D systems) (human, UniProt Q9BZM4 30-217, limits assumed)
T3 construct: Bought; not shown: Fc of the bought fusion protein
T3 sequence (looked up): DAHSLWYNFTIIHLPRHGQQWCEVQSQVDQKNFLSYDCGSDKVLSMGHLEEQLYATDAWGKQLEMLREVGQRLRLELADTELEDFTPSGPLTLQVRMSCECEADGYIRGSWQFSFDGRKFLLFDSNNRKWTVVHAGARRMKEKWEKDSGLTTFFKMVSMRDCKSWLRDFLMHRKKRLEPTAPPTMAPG

T4: MICB-Fc (R&D Systems 1599-MB) (human, UniProt Q29980 23-298, limits assumed)
T4 construct: Bought; also called human MICB-Fc; not shown: Fc of the bought fusion protein
T4 sequence: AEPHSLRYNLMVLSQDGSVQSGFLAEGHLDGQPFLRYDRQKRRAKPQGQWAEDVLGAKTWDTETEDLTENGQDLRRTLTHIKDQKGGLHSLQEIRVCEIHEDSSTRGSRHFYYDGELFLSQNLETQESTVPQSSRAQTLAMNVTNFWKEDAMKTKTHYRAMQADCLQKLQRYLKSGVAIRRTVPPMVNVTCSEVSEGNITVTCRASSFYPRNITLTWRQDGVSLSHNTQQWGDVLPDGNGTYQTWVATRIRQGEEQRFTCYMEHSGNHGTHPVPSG

T5: MICA*001 expressed at the cell surface (human, UniProt Q29983 24-297)
T5 construct: the protein on cells also has its transmembrane and cytoplasmic parts (Genbank AAB41060); also called C1R-MICA*001; C1R-MICA*01
T5 sequence: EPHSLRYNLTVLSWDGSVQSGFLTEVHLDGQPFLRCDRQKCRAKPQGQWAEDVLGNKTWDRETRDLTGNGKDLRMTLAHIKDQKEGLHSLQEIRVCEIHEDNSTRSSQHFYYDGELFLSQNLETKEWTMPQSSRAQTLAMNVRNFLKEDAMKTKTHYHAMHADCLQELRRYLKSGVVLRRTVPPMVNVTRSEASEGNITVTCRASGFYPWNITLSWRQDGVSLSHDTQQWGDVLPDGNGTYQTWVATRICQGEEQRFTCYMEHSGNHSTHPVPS

T6: MICA*008 expressed at the cell surface (human, UniProt Q29983 24-297)
T6 construct: also called C1R-MICA*008; C1R-MICA*08
T6 chain: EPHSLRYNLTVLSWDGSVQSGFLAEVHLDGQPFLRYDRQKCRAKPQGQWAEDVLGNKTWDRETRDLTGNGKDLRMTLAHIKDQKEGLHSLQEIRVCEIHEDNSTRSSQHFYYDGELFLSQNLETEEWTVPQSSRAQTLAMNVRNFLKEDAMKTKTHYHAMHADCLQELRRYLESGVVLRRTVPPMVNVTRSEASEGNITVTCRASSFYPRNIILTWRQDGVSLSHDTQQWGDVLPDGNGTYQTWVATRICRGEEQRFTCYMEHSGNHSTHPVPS

T7: MICA*007 expressed at the cell surface (human, UniProt Q29983 24-297)
T7 construct: also called C1R-MICA*007; C1R-MICA*07
T7 chain: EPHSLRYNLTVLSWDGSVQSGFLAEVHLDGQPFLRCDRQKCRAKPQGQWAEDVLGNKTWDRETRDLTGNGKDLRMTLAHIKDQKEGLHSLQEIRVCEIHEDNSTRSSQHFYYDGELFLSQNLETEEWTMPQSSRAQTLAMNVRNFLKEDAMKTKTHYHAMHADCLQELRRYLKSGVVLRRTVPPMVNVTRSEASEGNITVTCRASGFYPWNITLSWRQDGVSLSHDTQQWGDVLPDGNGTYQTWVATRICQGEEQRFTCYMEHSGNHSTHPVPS

T8: MICA*004 expressed at the cell surface (human, UniProt Q29983 24-297)
T8 construct: also called C1R-MICA*004; C1R-MICA*04
T8 chain: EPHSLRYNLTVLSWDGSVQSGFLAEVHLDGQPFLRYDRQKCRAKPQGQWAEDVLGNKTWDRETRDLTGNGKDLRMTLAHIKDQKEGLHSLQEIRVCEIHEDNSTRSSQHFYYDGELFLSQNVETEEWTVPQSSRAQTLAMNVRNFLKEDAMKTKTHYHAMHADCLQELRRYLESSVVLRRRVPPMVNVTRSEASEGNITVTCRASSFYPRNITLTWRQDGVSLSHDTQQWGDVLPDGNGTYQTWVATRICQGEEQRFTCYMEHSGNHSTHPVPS

T9: MICA*001-BirA (human, UniProt Q29983 24-297)
T9 construct: also called MICA-BirA; MICA*01-BirA; not shown: BirA tag
T9 sequence: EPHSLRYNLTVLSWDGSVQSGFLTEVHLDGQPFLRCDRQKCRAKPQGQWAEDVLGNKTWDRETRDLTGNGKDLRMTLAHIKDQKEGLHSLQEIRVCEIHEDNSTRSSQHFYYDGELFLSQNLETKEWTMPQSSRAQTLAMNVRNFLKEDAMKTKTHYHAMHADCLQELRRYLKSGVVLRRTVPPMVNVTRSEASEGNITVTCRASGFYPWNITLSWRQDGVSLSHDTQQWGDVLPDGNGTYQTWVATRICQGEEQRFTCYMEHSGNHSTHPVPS


Experiments:
[1] = target: T1, human ULBP-1-Fc (R&D systems); experiment: SPR, antibody injected over immobilized ULBP-1-Fc
Protocol: (§1) For cross-binding study, the human ULBP-1-Fc (R&D systems*), MICB-Fc (*), ULBP-2-Fc (*) and ULBP-3-Fc (*) recombinant proteins were covalently immobilized respectively on the flow cell one to four of a CM5 sensorchip. Anti-MICA antibodies (at a constant concentration of 10 μg/ml) were injected for 2 minutes at a flow rate of 10 μl/min onto the four flow cells in parallel. After each cycle, Sensorchip was regenerated by a five second injection of appropriate regeneration buffer.

[2] = target: T2, human ULBP-2-Fc (R&D systems); experiment: SPR, antibody injected over immobilized ULBP-2-Fc
Protocol: as §1

[3] = target: T3, human ULBP-3-Fc (R&D systems); experiment: SPR, antibody injected over immobilized ULBP-3-Fc
Protocol: as §1

[4] = target: T4, MICB-Fc (R&D Systems 1599-MB); experiment: SPR, antibody at 10 µg/ml injected over immobilized MICB-Fc
Protocol: as §1

[5] = target: T5, MICA*001 expressed at the cell surface; experiment: flow cytometry on C1R transfectant cells, 4-parameter logistic fit
Protocol: (§2) The binding of antibodies obtained from the first, second and third immunization series (including CHG1-M-MIA-19E9, CHG1-M-MIA-9C10, CHG1-M-MIA-6E4, CHG1-M-MIA-20C6, CHG1-M-MIA-16A8, CHG1-M-MIA-12A10, CHG1-M-MIA-10A7, CHG1-M-MIA-18E8, CHG1-M-MIA-10F3, CHG1-M-MIA-15F9 and CHG1-M-MIA-14B4) were tested for binding to MICA-expressing CR1 transfectant cells C1R-MICA*001, C1R-MICA*004, C1R-MICA*007 and C1R-MICA*008 (Pr. A. Steinle, Eberhard-Karls University Tuebingen, Germany) described in Salih et al. (2003) Blood 102(4): […]. Binding was analyzed by flow cytometry.
(§3) Cells were harvested and stained in PBS 1×/BSA 0.2%/EDTA 2 mM buffer during 30 minutes at 4° C. using a dose-range of the anti-MICA mAbs. After two washes in staining buffer, cells were stained for 30 min at 4° C. with mouse anti-human IgG1-PE monoclonal antibodies (1/11). After two washes, stainings were acquired on a BD FACS Canto II and analyzed using the FlowJo software.
(§4) Antibodies CHG1-M-MIA-19E9, CHG1-M-MIA-9C10, CHG1-M-MIA-6E4, CHG1-M-MIA-20C6, CHG1-M-MIA-12A10, CHG1-M-MIA-10A7, CHG1-M-MIA-18E8, CHG1-M-MIA-10F3, and CHG1-M-MIA-15F9 bound to each of the C1R-MICA*001, C1R-MICA*004, C1R-MICA*007 and C1R-MICA*008 cells (see FIG. 1A for antibodies CHG1-M-MIA-19E9, CHG1-M-MIA-9C10, CHG1-M-MIA-6E4, CHG1-M-MIA-20C6, CHG1-M-MIA-12A10, CHG1-M-MIA-10F3, and FIG. 1B for antibodies, CHG1-M-MIA-18E8, CHG1-M-MIA-15F9, CHG1-M-MIA-10A7). […] EC50 values are shown in Table C in μg/ml (calculated using a 4-parameter logistic fit).

[6] = target: T6, MICA*008 expressed at the cell surface; experiment: as above
Protocol: as §2, §3, §4

[7] = target: T7, MICA*007 expressed at the cell surface; experiment: as above
Protocol: as §2, §3, §4

[8] = target: T8, MICA*004 expressed at the cell surface; experiment: as above
Protocol: as §2, §3, §4

[9] = target: T9, MICA*001-BirA; experiment: SPR single cycle kinetics, monovalent mean KD at pH 7.4, antibody captured on Protein-G chip, MICA-BirA injected
Protocol: For monovalent affinity measurement, chimeric anti-MICA antibodies were captured onto a Protein-G chip.
Affinities were determined using single cycle kinetics (SCK). SCK cycles were as follows: Successive 120s injections at 30 μl/min of 5 serial dilutions (0.01 to 100 nM) of MICA-His or MICA-BirA in ascending order (or of buffer for the blank injections to be subtracted during the analysis). After the last concentration is injected, complex is left to dissociate for 600s before regeneration by a 10s injection of appropriate regeneration buffer at 40 μl/min. After the regeneration, chip is left to stabilise for 60s in running buffer. Curves are fitted using Biacore T100 Evaluation software.

[10] = target: T5, MICA*001 expressed at the cell surface; experiment: cell-based or functional assay

binding result [1] | binding result [2] | binding result [3] | binding result [4] | EC50 [5] [mg/L] | EC50 [6] [mg/L] | EC50 [7] [mg/L] | EC50 [8] [mg/L] | Kd [9] [µM] | CDC: EC50 of the increase in dead (7-AAD positive) Raji-MICA*01 cells with human complement [10] [mg/L] | Binder
no binding (tested: 10 µg/ml) | no binding (tested: 10 µg/ml) | no binding (tested: 10 µg/ml) |  |  |  |  |  |  |  | CHG1-M-MIA-19E9 (antibody, human IgG1, V domains shown, also called chimeric anti-MICA 19E9) VH: DVQLQESGPGLVKPSQSLSLTCTVTGYSITSDYAWNWIRQFPGNKLEWMGFVSYSGTTKYNPSLKSRISITRDTSENQFFLQLNSVTSEDTATYYCARGYGFDYWGQGTTLTVSS VL: EIVLTQSPTTMAASPGEKITITCSATSSISSIYFHWYQQRPGFSPKLLIYRTSNLASGVPARFSGSGSGTSYSLTIGTMEAEDVATYYCQQGTTIPFTFGSGTKLEIK
 |  |  | binds | 0.47 | 0.26 | 0.94 | 0.17 | 0.0083 |  | CHG1-M-MIA-10F3 (antibody, human IgG1, V domains shown, the VH entry ends with ASTK) VH: QVQLQQSAAELARPGASVKMSCKASGYTFTSYTMHWVKQRPGQGLEWIGYINPSSGYTEYNQKFKDKTTLTVDKSSTTSYMQLSSLTSDNSAVYYCARGGDWDVDWFVYWGQGTLVTVSA VL: QIVLTQSPAIMSASPGEKVTITCSASSSISYMHWFQQKPGTSPKLWIYSTSKLASGVPARFSGSGSGTSHSLTISRMEAEDAATYYCQHRSTYPFTFGSGTKLEIK
 |  |  | binds | 0.68 | 0.79 | 1.81 | 0.43 | 0.061 |  | CHG1-M-MIA-15F9 (antibody, human IgG1, V domains shown, the VH entry ends with ASTK) VH: DVQLQESGPDLVKPSQSLSLTCTVTGYSITSGYSWHWIRQFPGNKLEWMGFIHYSGSTDYNPSLKSRISLTRDTSKNQFFLQLNSVSTEDTATYYCAKDYGHWYFDVWGAGTTVTVSS VL: SIVMTQTPKFLLVSAGDRVTITCKASQSVSYDVAWYQQKPGQSPKLLIFYASNRYTGVPARFTGSGYGTDFTFTISTVQAEDLAVYFCQQDYSSLTFGAGTKLELK
 |  |  | binds | 0.5 | 0.24 | 0.3 | 0.15 | 0.054 |  | CHG1-M-MIA-18E8 (antibody, human IgG1, V domains shown, the VH entry ends with ASTK) VH: DVQLQESGPDLVNPSQSLSLICTVTGYSITSDYSWHWIRQFPGNKLEWMGNIHYSGRINYNPSLRSRISITRDTSKNQFFLQLISVTTEDTATYYCATRRTFGNFEDYWGQGTTLTVSS VL: QIVLSQSPATLSVSPGEKVTMTCRSSSSVNYMHWYQQKPGSSPKPWIYATSTLASGVPARFSGSGSGTSYSLTISRVEAEDAATYYCQQWSSNPLTFGAGTKLELK
no binding (tested: 10 µg/ml) | no binding (tested: 10 µg/ml) | no binding (tested: 10 µg/ml) |  | 2.09 | 0.13 | 2.83 | 0.13 |  | 2 | CHG1-M-MIA-9C10 (antibody, human IgG1, V domains shown, also called chimeric anti-MICA 9C10) VH: QVQLQQPGAELVRPGTSVNLSCKASGYSFTRYWMNWVKQRPGQGLEWIGMIHPSDSETRLNQKFKDKATLTVDKSSSTAYMQLSSPTSEDSAVYYCGYGNFFYVMDYWGQGTSVTVSS VL: DILLTQSPAILSVSPGERVSFSCRASQSIGTSIHWYQQRTNGSPRLLIKFASESISGIPSRFSGSGSGTDFTLNINSVESEDIADYYCQQSNFWPFTFGSGTKLEVK
